Reference: patent US20260116991A1 (HAINAN SIMCERE ZAIMING PHARMACEUTICAL, published 2026)

Experiments:
[1] = target: T1, human GPC3 on CHO-K1-human GPC3 cells (CHOK1-hGPC3.2B5) (human, UniProt P51654 25-554); assay: FACS, CHOK1-hGPC3.2B5 cells;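 also: flow cytometry of humanized antibodies binding to the cells over one hour in the cold, read as cell mean fluorescence intensity, with EC50 obtained by curve fitting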
T1 construct: whole, on cells

[2] = target: biotinylated labeled human GPC3 protein (produced in-house) (human, UniProt P51654 25-559, limits assumed, biotinylated (Dojindo, Cat. No. LK03); sites not stated); assay: ELISA, biotinylated human GPC3 protein

Row | EC50 [1] | Max MFI [1] | OD450 at 0.0008 nM [2] | OD450 at 0.004 nM [2] | OD450 at 0.02 nM [2] | OD450 at 0.11 nM [2] | OD450 at 0.53 nM [2] | OD450 at 2.67 nM [2] | OD450 at 13.33 nM [2] | OD450 at 66.66 nM [2] | OD450 at 0.0004 nM [2] | OD450 at 0.002 nM [2] | OD450 at 0.011 nM [2] | OD450 at 0.056 nM [2] | OD450 at 0.28 nM [2] | OD450 at 1.39 nM [2] | OD450 at 6.94 nM [2] | OD450 at 34.72 nM [2] | Binder
1 | 1.08 nM | 5040 MFI | 0.137 OD450 | 0.297 OD450 | 0.915 OD450 | 1.89 OD450 | 2.26 OD450 | 2.56 OD450 | 2.3 OD450 | 2.39 OD450 | – | – | – | – | – | – | – | – | hAb003LH3L1 (antibody, human IgG1, V domains shown, Humanized F2.154.1; VH H3 + VL L1; expressed as human IgG1) VH: EVQLVQSGAEVKKPGSSVKVSCKASGYRFTDYEMHWVRQAPGQGLEWMGTIDPETGNTAYTQKFMDRVTLTADKSTSTAYMELSSLRSEDTAVYYCTRGYSFTYWGQGTLVTVSS VL: DIVMTQTPLSLPVTPGEPASISCRSSQNIVHSNGNTYLQWYLQKPGQSPQLLIFKVSNRFSGVPDRFSGSGSGTDFTLKISRVEAEDVGVYYCFQGSHVPFTFGQGTKLEIK
2 | 0.906 nM | 4780 MFI | 0.117 OD450 | 0.365 OD450 | 1.05 OD450 | 1.9 OD450 | 2.39 OD450 | 2.36 OD450 | 2.42 OD450 | 2.43 OD450 | – | – | – | – | – | – | – | – | hAb006LH1L1 (antibody, human IgG1, V domains shown, Humanized F3.38.7; VH H1 + VL L1; expressed as human IgG1) VH: EVQLVQSGAEVKKPGSSVKVSCKASGYTFSDYEIHWVRQAPGQGLEWMGAIDPKTGNTAYNQKFMGRVTITADKSTSTAYMELSSLRSEDTAVYYCTRYFSFAYWGQGTLVTVSS VL: DIVMTQTPLSLPVTPGEPASISCRSSQTFVHSNGNTYLQWYLQKPGQSPQLLIYKVSNRFSGVPDRFSGSGSGTDFTLKISRVEAEDVGVYYCFQGSHVPYTFGQGTKLEIK
3 | 1.1 nM | 4630 MFI | 0.15 OD450 | 0.288 OD450 | 0.841 OD450 | 1.71 OD450 | 2.4 OD450 | 2.46 OD450 | 2.47 OD450 | 2.57 OD450 | – | – | – | – | – | – | – | – | hAb006LH1L1b (antibody, human IgG1, V domains shown, Humanized F3.38.7; VH H1 + VL L1b; expressed as human IgG1) VH: EVQLVQSGAEVKKPGSSVKVSCKASGYTFSDYEIHWVRQAPGQGLEWMGAIDPKTGNTAYNQKFMGRVTITADKSTSTAYMELSSLRSEDTAVYYCTRYFSFAYWGQGTLVTVSS VL: DIVMTQTPLSLPVTPGEPASISCRSSQTFVHSNANTYLQWYLQKPGQSPQLLIYKVSNRFSGVPDRFSGSGSGTDFTLKISRVEAEDVGVYYCFQGSHVPYTFGQGTKLEIK
4 | 1.02 nM | 4880 MFI | 0.192 OD450 | 0.629 OD450 | 1 OD450 | 1.83 OD450 | 2.36 OD450 | 2.4 OD450 | 2.29 OD450 | 2.28 OD450 | – | – | – | – | – | – | – | – | hAb006LH2L1 (antibody, human IgG1, V domains shown, Humanized F3.38.7; VH H2 + VL L1; expressed as human IgG1) VH: EVQLVQSGAEVKKPGSSVKVSCKASGYTFTDYEIHWVRQAPGQGLEWMGAIDPKTGNTAYNQKFMGRVTITADKSTSTAYMELSSLRSEDTAVYYCTRYFSFAYWGQGTLVTVSS VL: DIVMTQTPLSLPVTPGEPASISCRSSQTFVHSNGNTYLQWYLQKPGQSPQLLIYKVSNRFSGVPDRFSGSGSGTDFTLKISRVEAEDVGVYYCFQGSHVPYTFGQGTKLEIK
5 | 1.14 nM | 4790 MFI | 0.16 OD450 | 0.316 OD450 | 0.872 OD450 | 1.91 OD450 | 2.41 OD450 | 2.55 OD450 | 2.4 OD450 | 2.37 OD450 | – | – | – | – | – | – | – | – | hAb006LH2L1b (antibody, human IgG1, V domains shown, Humanized F3.38.7; VH H2 + VL L1b; expressed as human IgG1) VH: EVQLVQSGAEVKKPGSSVKVSCKASGYTFTDYEIHWVRQAPGQGLEWMGAIDPKTGNTAYNQKFMGRVTITADKSTSTAYMELSSLRSEDTAVYYCTRYFSFAYWGQGTLVTVSS VL: DIVMTQTPLSLPVTPGEPASISCRSSQTFVHSNANTYLQWYLQKPGQSPQLLIYKVSNRFSGVPDRFSGSGSGTDFTLKISRVEAEDVGVYYCFQGSHVPYTFGQGTKLEIK
6 | 0.929 nM | 4920 MFI | 0.154 OD450 | 0.287 OD450 | 0.819 OD450 | 1.65 OD450 | 2.06 OD450 | 2.2 OD450 | 2.25 OD450 | 2.33 OD450 | – | – | – | – | – | – | – | – | hAb006LH3L1 (antibody, human IgG1, V domains shown, Humanized F3.38.7; VH H3 + VL L1; expressed as human IgG1) VH: EVQLVQSGAEVKKPGSSVKVSCKASGYTFTDYEIHWVRQAPGQGLEWMGAIDPKTGNTAYNQKFMGRVTLTADKSTSTAYMELSSLRSEDTAVYYCTRYFSFAYWGQGTLVTVSS VL: DIVMTQTPLSLPVTPGEPASISCRSSQTFVHSNGNTYLQWYLQKPGQSPQLLIYKVSNRFSGVPDRFSGSGSGTDFTLKISRVEAEDVGVYYCFQGSHVPYTFGQGTKLEIK
7 | 0.97 nM | 4670 MFI | 0.155 OD450 | 0.309 OD450 | 0.878 OD450 | 1.93 OD450 | 2.36 OD450 | 2.42 OD450 | 2.36 OD450 | 2.5 OD450 | – | – | – | – | – | – | – | – | hAb006LH3L1b (antibody, human IgG1, V domains shown, Humanized F3.38.7; VH H3 + VL L1b; expressed as human IgG1) VH: EVQLVQSGAEVKKPGSSVKVSCKASGYTFTDYEIHWVRQAPGQGLEWMGAIDPKTGNTAYNQKFMGRVTLTADKSTSTAYMELSSLRSEDTAVYYCTRYFSFAYWGQGTLVTVSS VL: DIVMTQTPLSLPVTPGEPASISCRSSQTFVHSNANTYLQWYLQKPGQSPQLLIYKVSNRFSGVPDRFSGSGSGTDFTLKISRVEAEDVGVYYCFQGSHVPYTFGQGTKLEIK
8 | 1.16 nM | 18000 MFI | – | – | – | – | – | – | – | – | 0.071 OD450 | 0.102 OD450 | 0.265 OD450 | 0.756 OD450 | 1.3 OD450 | 1.46 OD450 | 1.44 OD450 | 1.36 OD450 | hAb006LH3L1c (antibody, human IgG1, V domains shown, Humanized F3.38.7; VH H3 + VL L1c; expressed as human IgG1) VH: EVQLVQSGAEVKKPGSSVKVSCKASGYTFTDYEIHWVRQAPGQGLEWMGAIDPKTGNTAYNQKFMGRVTLTADKSTSTAYMELSSLRSEDTAVYYCTRYFSFAYWGQGTLVTVSS VL: DIVMTQTPLSLPVTPGEPASISCRSSQTFVHSNRNTYLQWYLQKPGQSPQLLIYKVSNRFSGVPDRFSGSGSGTDFTLKISRVEAEDVGVYYCFQGSHVPYTFGQGTKLEIK
9 | 1.98 nM | 17600 MFI | – | – | – | – | – | – | – | – | 0.058 OD450 | 0.096 OD450 | 0.228 OD450 | 0.59 OD450 | 1.11 OD450 | 1.61 OD450 | 1.33 OD450 | 1.45 OD450 | hAb006LH3L1d (antibody, human IgG1, V domains shown, Humanized F3.38.7; VH H3 + VL L1d; expressed as human IgG1) VH: EVQLVQSGAEVKKPGSSVKVSCKASGYTFTDYEIHWVRQAPGQGLEWMGAIDPKTGNTAYNQKFMGRVTLTADKSTSTAYMELSSLRSEDTAVYYCTRYFSFAYWGQGTLVTVSS VL: DIVMTQTPLSLPVTPGEPASISCRSSQTFVHSNSNTYLQWYLQKPGQSPQLLIYKVSNRFSGVPDRFSGSGSGTDFTLKISRVEAEDVGVYYCFQGSHVPYTFGQGTKLEIK
10 | 2.06 nM | 15800 MFI | – | – | – | – | – | – | – | – | 0.06 OD450 | 0.085 OD450 | 0.187 OD450 | 0.592 OD450 | 1.23 OD450 | 1.36 OD450 | 1.44 OD450 | 1.32 OD450 | hAb006LH3L1e (antibody, human IgG1, V domains shown, Humanized F3.38.7; VH H3 + VL L1e; expressed as human IgG1) VH: EVQLVQSGAEVKKPGSSVKVSCKASGYTFTDYEIHWVRQAPGQGLEWMGAIDPKTGNTAYNQKFMGRVTLTADKSTSTAYMELSSLRSEDTAVYYCTRYFSFAYWGQGTLVTVSS VL: DIVMTQTPLSLPVTPGEPASISCRSSQTFVHSNVNTYLQWYLQKPGQSPQLLIYKVSNRFSGVPDRFSGSGSGTDFTLKISRVEAEDVGVYYCFQGSHVPYTFGQGTKLEIK
11 | 2.02 nM | 6440 MFI | 0.109 OD450 | 0.17 OD450 | 0.496 OD450 | 1.36 OD450 | 2.14 OD450 | 2.42 OD450 | 2.38 OD450 | 2.43 OD450 | – | – | – | – | – | – | – | – | hAb007LH1L1 (antibody, human IgG1, V domains shown, Humanized F3.81.19; VH H1 + VL L1; expressed as human IgG1) VH: EVQLVQSGAEVKKPGSSVKVSCKASGYTFSDYEMHWVRQAPGQGLEWMGTIDPETGNTAYNQKFKGRVTITADKSTSTAYMELSSLRSEDTAVYYCTRPYSLTYWGQGTLVTVSS VL: DIVMTQTPLSLPVTPGEPASISCRSSQSFVHSNGDTYLQWYLQKPGQSPQLLIYKVSNRFSGVPDRFSGSGSGTDFTLKISRVEAEDVGVYYCFQGSHVPYTFGQGTKLEIK
12 | 6.47 nM | 6070 MFI | 0.099 OD450 | 0.137 OD450 | 0.341 OD450 | 1.07 OD450 | 1.98 OD450 | 2.34 OD450 | 2.38 OD450 | 2.46 OD450 | – | – | – | – | – | – | – | – | hAb007LH1L1b (antibody, human IgG1, V domains shown, Humanized F3.81.19; VH H1 + VL L1b; expressed as human IgG1) VH: EVQLVQSGAEVKKPGSSVKVSCKASGYTFSDYEMHWVRQAPGQGLEWMGTIDPETGNTAYNQKFKGRVTITADKSTSTAYMELSSLRSEDTAVYYCTRPYSLTYWGQGTLVTVSS VL: DIVMTQTPLSLPVTPGEPASISCRSSQSFVHSNRDTYLQWYLQKPGQSPQLLIYKVSNRFSGVPDRFSGSGSGTDFTLKISRVEAEDVGVYYCFQGSHVPYTFGQGTKLEIK
13 | 4.61 nM | 18200 MFI | – | – | – | – | – | – | – | – | 0.052 OD450 | 0.064 OD450 | 0.098 OD450 | 0.25 OD450 | 0.718 OD450 | 1.09 OD450 | 1.45 OD450 | 1.29 OD450 | hAb007LH1L1c (antibody, human IgG1, V domains shown, Humanized F3.81.19; VH H1 + VL L1c; expressed as human IgG1) VH: EVQLVQSGAEVKKPGSSVKVSCKASGYTFSDYEMHWVRQAPGQGLEWMGTIDPETGNTAYNQKFKGRVTITADKSTSTAYMELSSLRSEDTAVYYCTRPYSLTYWGQGTLVTVSS VL: DIVMTQTPLSLPVTPGEPASISCRSSQSFVHSNADTYLQWYLQKPGQSPQLLIYKVSNRFSGVPDRFSGSGSGTDFTLKISRVEAEDVGVYYCFQGSHVPYTFGQGTKLEIK
